Assay results from patent US20190382462A1, “METHODS AND COMPOSITIONS FOR TREATING HPA HYPERACTIVITY” (priority 2017, published 2019).
Where a chain is given by its changes, count along the chain named. In names and notes the source's numbering stands. Read-outs that look alike come from different tables or passages of the source. Each block holds one molecule with its values, some of them ahead of it.

Experiments:
C57BL/6J mice = assay: Shock-induced freezing test (mild footshock stress model); assay type: in vivo, mouse
Description: (§1) FIG. 2A and FIG. 2B: Serum concentration of CRF-BP-Fc. FIG. 2A: A CRF-BP-Fc fusion protein (SEQ ID NO:16), composed of CRF-BP (25-322) fused to mouse IgG1 Fc was administered to C57B16 mice at 2 doses (15 μg/mouse and 45 μg/mouse). […] FIG. 2B: Freezing in response to mild footshock, a mouse model of stress, was reduced in mice treated with the CRF-BP-Fc fusion protein on the day of treatment (*<0.05 from vehicle-treated mice).
SIF is a defensive behavior observed in response to fearful stimuli exposure (163), and it is used to determine the efficacy of the constructs under study (FIG. 1B). Testing takes place in a Mouse NIR Video Fear Conditioning System (Med Associates, St. Albans, Vt.) housed in soundproof boxes. The session consists of a 2-min habituation period followed by three 1.5 mA footshocks lasting 1 sec and separated by 20 sec. Duration of freezing behavior is measured for 15 min. Freezing behavior, i.e., the absence of all voluntary movements except breathing, is measured in all sessions by real-time digital video recordings calibrated to distinguish between subtle movements such as whisker twitch or tail flick and freezing behavior. This test is performed at days 1 and 4 after administration. Before and after footshock, mice are bled as outlined above for determination of serum corticosterone and compound levels. […]

CRF [1] = target: T1, CRF (Homo sapiens, UniProt P06850); assay: CRF binding ELISA (biotinylated CRF on avidin-coated plate); settings: data not shown
T1 construct: Biotinylated CRF was immobilized on an avidin-coated ELISA plate
T1 sequence (P06850 154-194 limits assumed): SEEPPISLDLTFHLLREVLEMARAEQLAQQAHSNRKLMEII
Source text: Biotinylated CRF was immobilized on an avidin-coated ELISA plate. […] OD=optical density.

corticosterone (CORT) = assay: Serum corticosterone (CORT) under repeated footshock stress; assay type: in vivo; settings: single administration 45 μg/mouse, C57Bl6 mice
Description: FIG. 3: Administration of a CRF-BP-Fc fusion (SEQ ID NO: 16) delayed the increased in basal serum glucocorticoid levels (“CORT” in pg/mL×1000), resulting from repeated stress. Repeated delivery of footshock to mice (dotted vertical lines indicate times for delivery of footshock) results in elevated baseline serum corticosterone (CORT) level in C57B16 mice (black circles), indicative of a chronic stress state. A single administration of CRF-BP-Fc fusion protein at a dose of 45 μg/mouse delayed such increase of baseline serum CORT (black squares). O=vehicle-treated mice; 45=CRF-BP-Fc-treated mice at 45 μg/mouse; *=p<0.05 from […]; CORT: plasma corticosterone levels (ng/ml).
CRFBP-Fc fusion protein was administered to C57B16 mice at a dose of 300 μg/mouse. Data points represent CORT concentration before and after injection of CRFBP-Fc containing IgG2-derived Fc (drug) and at 3 time points preceding repeated footshocks (FS). […] 3 hr after injection compared to vehicle group (**p<0.01, Fisher's LSD).
Stimulated CORT concentrations after injection of CRFBP-Fc containing IgG2-derived Fc and at 3 time points after repeated footshocks (FS). […] 3 hr after injection, FS1, and FS2 compared to vehicle group, respectively (*p<0.05, ****p<0.0001, Fisher's LSD). […]

[2] = Single-dose serum pharmacokinetics of CRF-BP-Fc in mice (sandwich ELISA); assay type: in vivo, mouse; settings: two doses (15 and 45 μg) in mice
Description: as §1
Mice are bled at 1, 6, and 12 hours and at 1, 2, 4, 6, 8, and 12 days post-injection by retro-orbital bleeding. […] The present blood sampling times presuppose a half-life value closer to those reported for human IgG in the mouse.
Concentrations in sera over time of CRF-BP-Fc or CRF-BP-albumin constructs are measured with a sandwich ELISA, which has already been established with a lower limit of detection of 1 ng/ml in serum. This ELISA assay consists of immobilized biotinylated CRF to capture serum CRF-BP-Fc on avidin plates followed by detection with a commercial anti-Fc antibody. This assay is used to monitor the serum concentration of CRF-BP-Fc in preliminary studies. CRF-BP-albumin constructs are detected with the same design using antibodies to albumin and blocking reagents designed for albumin ELISA quantification (e.g., Serum Albumin Sandwich ELISA Kit from LifeSpan BioSciences). […]

CRF [3] = target: T1, CRF; settings: cited from earlier work
Ucn1 = target: T2, Ucn1 (Homo sapiens, UniProt P55089); settings: cited from earlier work
T2 construct: the related peptide urocortin 1 (Ucn1)
T2 sequence (P55089 83-122 limits assumed): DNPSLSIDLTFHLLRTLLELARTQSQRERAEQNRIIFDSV

[4] = humans; cited from earlier work
rUcn 1 = target: T3, rUcn 1 (Rattus norvegicus, UniProt P55090); settings: cited from earlier work; for loss of affinity for rUcn 1: alanine mutants of CRF-BP
T3 sequence (P55090 81-120 limits assumed): T2 sequence (P55089 83-122 limits assumed) with N2D, S4P

r/hCRF = target: T4, r/hCRF (Homo sapiens, UniProt P06850); settings: cited from earlier work; for loss of affinity for r/hCRF: alanine mutants of CRF-BP
T4 sequence (P06850 154-194 limits assumed): T1 sequence (P06850 154-194 limits assumed)

- effect of fusion to mouse IgG1 Fc on CRF binding (CRF [1]): did not alter CRF binding
B1: CRF-BP-Fc (SEQ ID NO:16): fusion protein composed of CRF-BP (25-322) fused to mouse IgG1 Fc (protein, listed as Mus musculus)
chain: MSPNFKLQCHFILIFLTALRGESRYLELREAADYDPFLLFSANLKRELAGEQPYRRALRCLDMLSLQGQFTFTADRPQLHCAAFFISEPEEFITIHYDQVSIDCQGGDFLKVFDGWILKGEKFPSSQDHPLPSAERYIDFCESGLSRRSIRSSQNVAMIFFRVHEPGNGFTLTIKTDPNLFPCNVISQTPNGKFTLVVPHQHRNCSFSIIYPVVIKISDLTLGHVNGLQLKKSSAGCEGIGDFVELLGGTGLDPSKMTPLADLCYPFHGPAQMKVGCDNTVVRMVSSGKHVNRVTFEYRQLEPYELENPNGNSIGEFCLSGLTGGCKPCICTVPEVSSVFIFPPKPKDVLTITLTPKVTCVVVDISKDDPEVQFSWFVDDVEVHTAQTQPREEQFNSTFRSVSELPIMHQDWLNGKEFKCRVNSAAFPAPIEKTISKTKGRPKAPQVYTIPPPKEQMAKDKVSLTCMITDFFPEDITVEWQWNGQPAENYKNTQPIMDTDGSYFVYSKLNVQKSNWEAGNTFTCSVLHEGLHNHHTEKSLSHSPGK
- circulating serum concentrations effective in reducing behavioral responses to stress (C57BL/6J mice; mice): 1 to 3 µg/mL
- freezing in response to mild footshock (C57BL/6J mice; single administration, day of treatment, vs vehicle-treated mice): reduced
- increase in basal serum glucocorticoid (CORT) levels resulting from repeated stress (corticosterone (CORT)): delayed
- pharmacokinetic profile from serum concentrations [2]: linear pharmacokinetics with a biexponential profile

B2: CRF-BP: binding protein that specifically binds to CRF (protein, UniProt P24387 25-322, looked up)
Corticotropin-releasing …: YLELREAADYDPFLLFSANLKRELAGEQPYRRALRCLDMLSLQGQFTFTADRPQLHCAAFFISEPEEFITIHYDQVSIDCQGGDFLKVFDGWILKGEKFPSSQDHPLPSAERYIDFCESGLSRRSIRSSQNVAMIFFRVHEPGNGFTLTIKTDPNLFPCNVISQTPNGKFTLVVPHQHRNCSFSIIYPVVIKISDLTLGHVNGLQLKKSSAGCEGIGDFVELLGGTGLDPSKMTPLADLCYPFHGPAQMKVGCDNTVVRMVSSGKHVNRVTFEYRQLEPYELENPNGNSIGEFCLSGL
- Kd (CRF [3]; range printed without naming the ligand, read-out: KD (high affinity of CRF-BP)): 100 to 200 pM
- Kd (CRF [3]; read-out: KD for CRF): 200 pM
- Kd (Ucn1): 100 pM
- plasma half-life [4]: minutes

B3: Y211A: CRF-BP alanine mutant (protein, UniProt P24387 25-322, looked up, variant Y211A)
Corticotropin-releasing …: B2 Corticotropin-releasing … with Y187A
- loss of affinity for rUcn 1 (rUcn 1): complete
- loss of affinity for r/hCRF (r/hCRF): complete

B4: L61A: CRF-BP alanine mutant (protein, UniProt P24387 25-322, looked up, variant L61A)
Corticotropin-releasing …: B2 Corticotropin-releasing … with L37A
- loss of affinity for rUcn 1 (rUcn 1): partial
- loss of affinity for r/hCRF (r/hCRF): partial

B5: CRFBPC237A/C264A: CRF-BP derivative lacking the cysteines of the fourth disulfide bridge (C237/C264) (protein, UniProt P24387 25-322, looked up, variant C237A C264A)
Corticotropin-releasing …: B2 Corticotropin-releasing … with C213A, C240A
- affinity for rUcn 1 compared with WT CRF-BP (rUcn 1): indistinguishable from that of WT CRF-BP
- affinity for r/hCRF compared with WT CRF-BP (r/hCRF): indistinguishable from that of WT CRF-BP

B6: CRF-BPC277A/C318A: CRF-BP derivative lacking the cysteines of the fifth disulfide bridge (C277/C318) (protein, UniProt P24387 25-322, looked up, variant C277A C318A)
Corticotropin-releasing …: B2 Corticotropin-releasing … with C253A, C294A
- affinity for rUcn 1 compared with WT CRF-BP (rUcn 1): indistinguishable from that of WT CRF-BP
- affinity for r/hCRF compared with WT CRF-BP (r/hCRF): indistinguishable from that of WT CRF-BP

B7: Q188A: CRF-BP alanine mutant (protein, UniProt P24387 25-322, looked up, variant Q188A)
Corticotropin-releasing …: B2 Corticotropin-releasing … with Q164A
- loss of affinity for rUcn 1 (rUcn 1): partial
- loss of affinity for r/hCRF (r/hCRF): partial

B8: W116A: CRF-BP alanine mutant (protein, UniProt P24387 25-322, looked up, variant W116A)
Corticotropin-releasing …: B2 Corticotropin-releasing … with W92A
- loss of affinity for rUcn 1 (rUcn 1): complete
- loss of affinity for r/hCRF (r/hCRF): complete

B9: F123A: CRF-BP alanine mutant (protein, UniProt P24387 25-322, looked up, variant F123A)
Corticotropin-releasing …: B2 Corticotropin-releasing … with F99A
- loss of affinity for rUcn 1 (rUcn 1): partial
- loss of affinity for r/hCRF (r/hCRF): partial

B10: E121A: CRF-BP alanine mutant (protein, UniProt P24387 25-322, looked up, variant E121A)
Corticotropin-releasing …: B2 Corticotropin-releasing … with E97A
- loss of affinity for rUcn 1 (rUcn 1): partial
- loss of affinity for r/hCRF (r/hCRF): partial
